In US20190041402A1 (GOVERNING COUNCIL OF THE UNIVERSITY OF TORONTO, published 2019):

T1: extracellular domain (ECD) of human αKlotho, amino acids E34-S981 with C-terminal 6-His tag (R&D Systems … (human, UniProt Q9UEF7 34-981))
T1 construct: range 34-981; also called αKlotho (aa34-981); target antigen
T1 sequence: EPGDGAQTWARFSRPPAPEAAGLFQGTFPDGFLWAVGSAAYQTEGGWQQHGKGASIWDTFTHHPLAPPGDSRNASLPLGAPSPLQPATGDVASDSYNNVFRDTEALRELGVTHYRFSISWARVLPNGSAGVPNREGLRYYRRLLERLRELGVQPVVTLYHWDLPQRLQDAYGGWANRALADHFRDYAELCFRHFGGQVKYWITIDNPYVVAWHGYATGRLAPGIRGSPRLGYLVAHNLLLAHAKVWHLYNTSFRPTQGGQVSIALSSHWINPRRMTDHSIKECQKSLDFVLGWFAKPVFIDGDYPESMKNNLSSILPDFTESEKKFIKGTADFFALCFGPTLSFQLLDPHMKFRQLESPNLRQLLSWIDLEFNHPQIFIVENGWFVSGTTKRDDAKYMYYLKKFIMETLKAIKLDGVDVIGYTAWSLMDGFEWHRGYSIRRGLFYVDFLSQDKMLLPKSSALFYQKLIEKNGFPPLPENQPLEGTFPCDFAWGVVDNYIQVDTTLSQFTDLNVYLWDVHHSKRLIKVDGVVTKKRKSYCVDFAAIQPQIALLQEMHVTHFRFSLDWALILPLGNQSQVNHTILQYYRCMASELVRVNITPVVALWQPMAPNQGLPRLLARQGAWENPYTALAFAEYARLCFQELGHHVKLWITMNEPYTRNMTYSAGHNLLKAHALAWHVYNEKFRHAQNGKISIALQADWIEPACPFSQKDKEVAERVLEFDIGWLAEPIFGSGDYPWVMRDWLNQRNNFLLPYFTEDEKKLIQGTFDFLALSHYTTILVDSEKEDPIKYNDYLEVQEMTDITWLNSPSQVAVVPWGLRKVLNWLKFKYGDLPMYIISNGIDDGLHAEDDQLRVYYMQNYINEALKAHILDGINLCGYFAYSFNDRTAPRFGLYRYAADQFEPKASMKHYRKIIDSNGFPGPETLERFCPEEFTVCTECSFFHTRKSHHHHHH


Key:
bovine serum albumin = target: T2, bovine serum albumin (bovine, UniProt P02769 25-607); test: Fab ELISA, purified Fab 5 ug/ml on immobilised BSA, anti-Flag-HRP, A450
T2 construct: also called BSA
Experimental: FIG. 10 is a graph showing absorbance values of Fab ELISAs with additional αKlotho antibodies. Purified Fabs [5 ug/ml] were incubated with immobilized αKlotho (1 ug/ml) or bovine serum albumin (BSA), as a negative control. After washing off unbound Fab, bound Fab were detected using an HRP-conjugated anti-Flag anti-body (Fabs have Flag-tag on the light chain). Colorimetric HRP reagents allow for absorbance readings at 450 nm.

[1] = target: T1, extracellular domain (ECD) of human …; test: SPR, Fab captured by anti-H+L IgG, αKlotho injected at 50 to 6.25 ug/ml, Langmuir fit [continued]
Experimental: (§1) Affinity estimates for each of the antibodies were determined by surface plasmon resonance (SPR). Fabs were immobilized using an anti-H+L antibody and serial dilutions of αKlotho were injected.

[2] = target: T1, extracellular domain (ECD) of human …; test: SPR, Fab captured by anti-H+L antibody, αKlotho injected
Experimental: as §1

T2 sequence (P02769 25-607 limits assumed): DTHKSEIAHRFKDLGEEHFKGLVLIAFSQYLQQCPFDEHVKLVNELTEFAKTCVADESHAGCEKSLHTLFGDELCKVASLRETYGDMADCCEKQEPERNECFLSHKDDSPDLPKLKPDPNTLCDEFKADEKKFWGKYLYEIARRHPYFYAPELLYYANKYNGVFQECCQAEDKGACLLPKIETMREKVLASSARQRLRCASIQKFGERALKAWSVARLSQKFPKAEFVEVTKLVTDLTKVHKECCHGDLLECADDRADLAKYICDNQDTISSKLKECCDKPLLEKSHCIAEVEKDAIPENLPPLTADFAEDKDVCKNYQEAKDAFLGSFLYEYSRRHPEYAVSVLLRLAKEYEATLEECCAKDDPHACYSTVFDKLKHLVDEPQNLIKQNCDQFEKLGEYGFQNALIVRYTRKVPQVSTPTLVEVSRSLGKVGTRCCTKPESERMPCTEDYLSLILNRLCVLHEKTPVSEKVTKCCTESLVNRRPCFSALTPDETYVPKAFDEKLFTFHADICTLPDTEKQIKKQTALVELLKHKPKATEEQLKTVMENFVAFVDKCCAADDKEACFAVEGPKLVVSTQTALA

| Binder | binding result (bovine serum albumin) | Kd [1] [nM] | koff [1] [s⁻¹] | kon [1] [M⁻¹ s⁻¹] | Kd [2] [nM] |
| --- | --- | --- | --- | --- | --- |
| anti-αKlotho Fab clone 4809 (Fab, V domains shown, Fab (also as Fab-phage); FLAG tag on light chain; also called sb178) VH: EVQLVESGGGLVQPGGSLRLSCAASGFNIYSYYIHWVRQAPGKGLEWVASIYSYYGSTSYADSVKGRFTISADTSKNTAYLQMNSLRAEDTAVYYCARSGPWAWYGLDYWGQGTLVTVSS VL: DIQMTQSPSSLSASVGDRVTITCRASQSVSSAVAWYQQKPGKAPKLLIYSASSLYSGVPSRFSGSRSGTDFTLTISSLQPEDFATYYCQQSGWAYHPITFGQGTKVEIKR | no binding (tested: 5 ug/ml) | 0.46 | 0.000258 | 560000 | 0.845 |
| anti-αKlotho Fab clone 4820 (Fab, V domains shown, Fab (also as Fab-phage); FLAG tag on light chain; also called sb189) VH: EVQLVESGGGLVQPGGSLRLSCAASGFNISSYYMHWVRQAPGKGLEWVASIYSSYSSTYYADSVKGRFTISADTSKNTAYLQMNSLRAEDTAVYYCARGAWAMDYWGQGTLVTVSS VL: DIQMTQSPSSLSASVGDRVTITCRASQSVSSAVAWYQQKPGKAPKLLIYSASSLYSGVPSRFSGSRSGTDFTLTISSLQPEDFATYYCQQSPWGAYLITFGQGTKVEIKR | no binding (tested: 5 ug/ml) | 1.48 | 0.00116 | 780000 | 2.7 |
| anti-αKlotho Fab clone 4826 (Fab, V domains shown, Fab (also as Fab-phage); FLAG tag on light chain; also called sb195) VH: EVQLVESGGGLVQPGGSLRLSCAASGFNISSYYMHWVRQAPGKGLEWVASISSSYGYTYYADSVKGRFTISADTSKNTAYLQMNSLRAEDTAVYYCARGYPASSYYYPSSALDYWGQGTLVTVSS VL: DIQMTQSPSSLSASVGDRVTITCRASQSVSSAVAWYQQKPGKAPKLLIYSASSLYSGVPSRFSGSRSGTDFTLTISSLQPEDFATYYCQQAGFFSYPITFGQGTKVEIKR |  | 2.03 | 0.00218 | 1.07e+06 | 3.3 |
| anti-αKlotho Fab clone 4813 (Fab, V domains shown, Fab (also as Fab-phage); FLAG tag on light chain; also called sb182) VH: EVQLVESGGGLVQPGGSLRLSCAASGFNLYSSSIHWVRQAPGKGLEWVASISPYSGYTYYADSVKGRFTISADTSKNTAYLQMNSLRAEDTAVYYCARYYSGWYSPAWWYGIDYWGQGTLVTVSS VL: DIQMTQSPSSLSASVGDRVTITCRASQSVSSAVAWYQQKPGKAPKLLIYSASSLYSGVPSRFSGSRSGTDFTLTISSLQPEDFATYYCQQAAWGGAPITFGQGTKVEIKR |  | 2.8 | 0.00164 | 588000 | 5.2 |
| anti-αKlotho Fab clone 4816 (Fab, V domains shown, Fab (also as Fab-phage); FLAG tag on light chain; also called sb185) VH: EVQLVESGGGLVQPGGSLRLSCAASGFNFSSSSIHWVRQAPGKGLEWVASISSSYGYTYYADSVKGRFTISADTSKNTAYLQMNSLRAEDTAVYYCARGWYAAYSVYWFGGHASYGLDYWGQGTLVTVSS VL: DIQMTQSPSSLSASVGDRVTITCRASQSVSSAVAWYQQKPGKAPKLLIYSASSLYSGVPSRFSGSRSGTDFTLTISSLQPEDFATYYCQQSSYSLITFGQGTKVEIKR |  | 2.06 | 0.00183 | 888000 | 3.7 |
| anti-αKlotho Fab clone 4815 (Fab, V domains shown, Fab (also as Fab-phage); FLAG tag on light chain; also called sb184) VH: EVQLVESGGGLVQPGGSLRLSCAASGFNFSSSSIHWVRQAPGKGLEWVASISSSYGYTYYADSVKGRFTISADTSKNTAYLQMNSLRAEDTAVYYCARGFSSSAHWYWSWYGPGGGFDYWGQGTLVTVSS VL: DIQMTQSPSSLSASVGDRVTITCRASQSVSSAVAWYQQKPGKAPKLLIYSASSLYSGVPSRFSGSRSGTDFTLTISSLQPEDFATYYCQQSSYSLITFGQGTKVEIKR | no binding (tested: 5 ug/ml) |  |  |  |  |
| anti-αKlotho Fab clone 4817 (Fab, V domains shown, Fab (also as Fab-phage); FLAG tag on light chain; also called sb186) VH: EVQLVESGGGLVQPGGSLRLSCAASGFNFSSSSIHWVRQAPGKGLEWVASISSSYGYTYYADSVKGRFTISADTSKNTAYLQMNSLRAEDTAVYYCARGYPSSGAAWFWFSHPGSAMDYWGQGTLVTVSS VL: DIQMTQSPSSLSASVGDRVTITCRASQSVSSAVAWYQQKPGKAPKLLIYSASSLYSGVPSRFSGSRSGTDFTLTISSLQPEDFATYYCQQSSYSLITFGQGTKVEIKR |  | 1.93 | 0.00269 | 1.39e+06 | 4.1 |
| anti-αKlotho Fab clone 4806 (Fab, V domains shown, Fab (also as Fab-phage); FLAG tag on light chain; also called sb175) VH: EVQLVESGGGLVQPGGSLRLSCAASGFNISSSSIHWVRQAPGKGLEWVAYISSSYSSTSYADSVKGRFTISADTSKNTAYLQMNSLRAEDTAVYYCARSSGGGYYHWWVVPYAMDYWGQGTLVTVSS VL: DIQMTQSPSSLSASVGDRVTITCRASQSVSSAVAWYQQKPGKAPKLLIYSASSLYSGVPSRFSGSRSGTDFTLTISSLQPEDFATYYCQQSSYSLITFGQGTKVEIKR | no binding (tested: 5 ug/ml) |  |  |  |  |
| anti-αKlotho Fab clone 4821 (Fab, V domains shown, Fab (also as Fab-phage); FLAG tag on light chain; also called sb190) VH: EVQLVESGGGLVQPGGSLRLSCAASGFNLYYSYMHWVRQAPGKGLEWVASISPYSGSTYYADSVKGRFTISADTSKNTAYLQMNSLRAEDTAVYYCARSGFSSWWWVVSYAFDYWGQGTLVTVSS VL: DIQMTQSPSSLSASVGDRVTITCRASQSVSSAVAWYQQKPGKAPKLLIYSASSLYSGVPSRFSGSRSGTDFTLTISSLQPEDFATYYCQQSSYSLITFGQGTKVEIKR |  | 2.85 | 0.00277 | 973000 | 5.1 |
| anti-αKlotho Fab clone 4810 (Fab, V domains shown, Fab (also as Fab-phage); FLAG tag on light chain; also called sb179) VH: EVQLVESGGGLVQPGGSLRLSCAASGFNLSSSSIHWVRQAPGKGLEWVAYISPSYGSTSYADSVKGRFTISADTSKNTAYLQMNSLRAEDTAVYYCARSGYYSGAYWHWWVVPYAMDYWGQGTLVTVSS VL: DIQMTQSPSSLSASVGDRVTITCRASQSVSSAVAWYQQKPGKAPKLLIYSASSLYSGVPSRFSGSRSGTDFTLTISSLQPEDFATYYCQQSSYSLITFGQGTKVEIKR | no binding (tested: 5 ug/ml) |  |  |  |  |
| anti-αKlotho Fab clone 4827 (Fab, V domains shown, Fab (also as Fab-phage); FLAG tag on light chain; also called sb196) VH: EVQLVESGGGLVQPGGSLRLSCAASGFNFSSSSIHWVRQAPGKGLEWVAYISSSSGSTSYADSVKGRFTISADTSKNTAYLQMNSLRAEDTAVYYCARAYHSYFYGSYWSYGWAGALDYWGQGTLVTVSS VL: DIQMTQSPSSLSASVGDRVTITCRASQSVSSAVAWYQQKPGKAPKLLIYSASSLYSGVPSRFSGSRSGTDFTLTISSLQPEDFATYYCQQSSYSLITFGQGTKVEIKR | no binding (tested: 5 ug/ml) |  |  |  |  |
| anti-αKlotho Fab clone 4834 (Fab, V domains shown, Fab (also as Fab-phage); FLAG tag on light chain; also called sb203) VH: EVQLVESGGGLVQPGGSLRLSCAASGFNFSSSSIHWVRQAPGKGLEWVASISSSYGYTYYADSVKGRFTISADTSKNTAYLQMNSLRAEDTAVYYCARAVSFYYWAWYGPGFAMDYWGQGTLVTVSS VL: DIQMTQSPSSLSASVGDRVTITCRASQSVSSAVAWYQQKPGKAPKLLIYSASSLYSGVPSRFSGSRSGTDFTLTISSLQPEDFATYYCQQSSYSLITFGQGTKVEIKR | no binding (tested: 5 ug/ml) |  |  |  |  |
| anti-αKlotho Fab clone 4812 (Fab, V domains shown, Fab (also as Fab-phage); FLAG tag on light chain; also called sb181) VH: EVQLVESGGGLVQPGGSLRLSCAASGFNLSSYSMHWVRQAPGKGLEWVASISSYSGYTSYADSVKGRFTISADTSKNTAYLQMNSLRAEDTAVYYCARSYSWWWSVSYAMDYWGQGTLVTVSS VL: DIQMTQSPSSLSASVGDRVTITCRASQSVSSAVAWYQQKPGKAPKLLIYSASSLYSGVPSRFSGSRSGTDFTLTISSLQPEDFATYYCQQGYWLFTFGQGTKVEIK |  | 0.387 | 0.000191 | 493000 | 0.885 |
| anti-αKlotho Fab clone 4818 (Fab, V domains shown, Fab (also as Fab-phage); FLAG tag on light chain; also called sb187) VH: EVQLVESGGGLVQPGGSLRLSCAASGFNISYSSIHWVRQAPGKGLEWVASISPYSGYTYYADSVKGRFTISADTSKNTAYLQMNSLRAEDTAVYYCARSGHSVYWWWSHFGMDYWGQGTLVTVSS VL: DIQMTQSPSSLSASVGDRVTITCRASQSVSSAVAWYQQKPGKAPKLLIYSASSLYSGVPSRFSGSRSGTDFTLTISSLQPEDFATYYCQQPYSPITFGQGTKVEIKR |  | 1.05 | 0.000539 | 512000 | 2.1 |
